Experimental data as given in patent US20120328625A1 (AstraZeneca / MedImmune, published 2012).

B1: 1G1 (antibody, V domains shown)
VH: EVQLVESGGGLVKPGGSLRLSCAASGFTFSSYSMNWVRQAPGKGLEWVSSFSSSSSYIYYADSVKGRFTISRDNAKNSLYLQMNSLRAEDTAVYYCARDRGDYVDYYYGMDVWGQGTTVTVSS
VL: SYELTQPPSVSVSPGQTASITCSGDKLDYKYICWYQQKPGQSPVLVIYQDIKRPSGIPERFSGSNSGNTATLTISGTQAMDEADYYCQAWDSNTPLVFGGGTKLTVL
notes: fully human XenoMouse hybridoma antibody; also called MAb 1G1
B2: 1G1 recombinant IgG2 (antibody, V domains shown)
VH: EVQLVESGGGLVKPGGSLRLSCAASGFTFSSYSMNWVRQAPGKGLEWVSSFSSSSSYIYYADSVKGRFTISRDNAKNSLYLQMNSLRAEDTAVYYCARDRGDYVDYYYGMDVWGQGTTVTVSS
VL: SYELTQPPSVSVSPGQTASITCSGDKLDYKYICWYQQKPGQSPVLVIYQDIKRPSGIPERFSGSNSGNTATLTISGTQAMDEADYYCQAWDSNTPLVFGGGTKLTVL
B3: 3H8 (antibody, V domains shown)
VH: QVQLVESGGGVVQPGRSLRLSCAASGFTFSTYGMHWVRQAPGKGLEWVAVIWYDGSNKYYADSVKGRFTISRDNSKNTLNLQMNSLRAEDTAVYYCARDLYYYGSGSPFDYWGQGTLVTVSS
VL: EIVMTQSPATLSVSPGERATLSCRASQSVSSNLAWYQQKPGQAPRLLIFGVSIRATGIPARFSGSGSGTEFTLTISSLQSEDFAVYYCQQYNNWPRPGFGGGTKVEIK
notes: fully human XenoMouse hybridoma antibody; also called MAb 3H8
B4: 3H8 recombinant IgG2 (antibody, V domains shown)
VH: QVQLVESGGGVVQPGRSLRLSCAASGFTFSTYGMHWVRQAPGKGLEWVAVIWYDGSNKYYADSVKGRFTISRDNSKNTLNLQMNSLRAEDTAVYYCARDLYYYGSGSPFDYWGQGTLVTVSS
VL: EIVMTQSPATLSVSPGERATLSCRASQSVSSNLAWYQQKPGQAPRLLIFGVSIRATGIPARFSGSGSGTEFTLTISSLQSEDFAVYYCQQYNNWPRPGFGGGTKVEIK
B5: 4B6 (antibody, V domains shown)
VH: QVQLVESGGGVVQPGRSLRLSCAASGFTFSTYGMHWVRQAPGKGLEWVAVIWYDGSNEYYADSVKGRFTISRDNSKNTLYLQMNSLRAEDTAVYYCARDLYYYGSGSPFDYWGQGTLVTVSS
VL: EIVMTQSPATLSVSPGERATLSCRASQSVSSNLAWYQQKPGQAPRLLIFGISIRATGIPARFSGSGSGTEFTLTISSLQSEDFAVYYCQQYNDWPRPGFGGGTRVEIK
notes: fully human XenoMouse hybridoma antibody; tested as hybridoma supernatant and as purified antibody; also called MAb 4B6
B6: 1H8 recombinant IgG2 (antibody, V domains shown)
VH: QVQLQESGPGLVKPSETLSLTCTVSGGSISSYYWTWIRQPPGKGLEWIGYIYYSGSTNYNPSLKSRVTISVDTSKNQFSLKLSSVTAADTAVYYCARDRLLYGMDVWGQGTTVTVSS
VL: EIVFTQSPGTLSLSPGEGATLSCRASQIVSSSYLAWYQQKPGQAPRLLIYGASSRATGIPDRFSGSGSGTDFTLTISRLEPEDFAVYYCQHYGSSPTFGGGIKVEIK
notes: also called 1H8 hIgG2
B7: 6D7 recombinant IgG2 (antibody, V domains shown)
VH: QVQLQESGPGLVKPSQTLSLTCTVSGGSINSGGFYWSWIRQHPGKNLEWIGSIYYSGNTYYNPSLKSRVTISVDTSKNQFSLKLTSVTAADTAVYYCARGNDSGDYDWYFDLWGRGTLVTVSS
VL: SYELTQPPSVSVSPGQTASITCSGEKLGYKYVCWYQQKPGQSPVLVIFHDNKRPSGIPERFSGSNSGNTATLTISGAQAMDEADYYCQAGDSSAVFGGGTKLTVL

What was measured:
[1] = target: T1, Recombinant Human Sonic Hedgehog C24II amino terminal peptide (R&D Systems cat#1845-SH) (human, UniProt Q15465 24-197); assay: ELISA, apparent KD, purified antibody on immobilized Shh C24II
T1 construct: domain: amino terminal peptide; bought; also called Shh-C24II; C24II peptide
Description: (§1) The binding of purified antibodies to recombinant human Shh was determined using an ELISA-based method. The N-terminal signaling domain of Shh, Shh-N, was presented in two forms: as a purified protein isolated from bacteria lacking lipid modifications and as a constituent of conditioned medium in a form that contains the N-terminal palmitoyl modification but lacks the C-terminal cholesterol moiety.
(§2) The plates were sealed and placed on a shaker overnight at 5° C. The next day, the plates were washed 4 times with PBS with 0.05% Tween 20 (PBS-T). […] The plates were washed four times with PBS-T. Titrations of purified antibody (half log serial dilutions over at least six logs with a starting concentration of 30 μg/mL) were made in 100 μl PBS-T and added into wells and incubated with shaking overnight at 4° C. Antibody controls included human IgG2 and IgG4 (Sigma-Aldrich, Cat, #I5404 and #I4639, respectively). […] Following washing with PBS-T, the chemiluminescent Peroxidase substrate (Sigma cat# CPS-2-60) was added at room temperature and incubated for ten minutes with the plate covered by foil. Each well was read for 100 msec in the Spectromax 5e to determine RLU.

[2] = target: T2, Shh-N in conditioned medium (human, UniProt Q15465 24-197, N-terminal palmitoyl modification; lacks the C-terminal cholesterol moiety); assay: cell-based or functional assay
[3] = target: T3, full length human Shh expressed on the cell surface (human, UniProt Q15465 24-462); assay: cell-based or functional assay
[4] = target: T2, Shh-N in conditioned medium; assay: cell-based or functional assay; remark: listed apart in the source
[5] = target: T3, full length human Shh expressed on the …; assay: cell-based or functional assay; remark: listed apart in the source
[6] = target: T2, Shh-N in conditioned medium; assay: cell-based or functional assay; remark: listed apart in the source
[7] = target: T2, Shh-N in conditioned medium; assay: ELISA, apparent KD, purified antibody on immobilized Shh-CM
Description: as §1, §2

[8] = target: T2, Shh-N in conditioned medium; assay: cell-based or functional assay; remark: listed apart in the source
biotinylated human Shh = target: T4, biotinylated human Shh (human, UniProt Q15465 24-197, limits assumed, biotinylated); assay: ELISA, hybridoma supernatant on neutravidin-captured biotin-Shh
T4 construct: also called biotin-Shh; immobilized biotinylated Shh
Description: After blocking with 1% milk in PBS, 40 μl of 500 ng/ml biotinylated Shh in 1×PBS, 1% milk (wt/vol) was added to each well and incubated for 1 hr at RT. Hybridoma supernatants (10 μl/well) were added to 40 μl of 1% milk, 0.05% Tween-20 in PBS per well and incubated 1 hr at RT. Following washing and incubation with secondary antibody (100 ng/ml goat-anti-human IgG Fc HRP), wells were developed with TMB substrate and subsequently quenched with 1 N HCl.

[9] = target: T3, full length human Shh expressed on the …; assay: flow cytometry, exhaust hybridoma supernatant 1:10, 293T cells transiently expressing human Shh
Description: (§3) Finally, binding of antibody in exhaust hybridoma supernatants to native Shh was assessed using flow cytometry. […] Transfected or parental cells were seeded into the plates with V-bottom wells (50,000 cells/well). Exhaust supernatants (50 μl of a 1:10 dilution) were added to each well and incubated at 4° C. for 1 hr. […] It was added to a concentration of 2 μg/ml in a volume of 50 μl. Cells were washed and 50 μl of a 2 μg/ml solution of secondary antibody (Cy5-labeled goat-anti-human IgG or Cy5-labeled goat-anti-rabbit IgG) were added to each well. 7AAD was added to a concentration of 5 μg/ml and the mixture was incubated for 30 min at RT. The mean fluorescence for each sample was then determined using flow cytometry.

[10] = target: T3, full length human Shh expressed on the …; assay: FMAT, hybridoma supernatant on 293T cells transiently expressing human Shh
Description: Cells were maintained at 1×10⁶ cells/ml overnight at 37° C., 5% CO₂. […] Supernatants were added to each well (10 μl/well) and incubated 1.5 hrs at RT. […] Plates were read on the FMAT 8100 HTS system from Applied Biosystems. Total signal (FL1×count) is defined as the number of positive cells in a well (count) multiplied by the average fluorescence intensity of the positive cells (FL1).

[11] = target: T3, full length human Shh expressed on the …; assay: flow cytometry, recombinant hIgG2 on CAOV3 cells stably over-expressing full length Shh; 95% CI ±32.4 pM
[12] = target: T2, Shh-N in conditioned medium; assay: SPR (Biacore T100), recombinant IgG2 mAb amine-coupled to CM5, Shh as analyte, 1:1 model
Description: (§4) The binding affinity of four purified recombinant antibodies expressed in a human IgG2 constant domain background was measured by high resolution Biacore. All experiments were performed using a Biacore T100 instrument at 23° C. […] All mAbs were covalently coupled to a CM5 biosensor chip using routine amine coupling chemistry. […] For experiments with Shh-containing conditioned media (CM), a 1.5 mL aliquot was centrifuged for 10 minutes at 13,200 rpm. […] Shh samples were randomly injected in triplicate with several buffer inject cycles interspersed for double referencing. All sensorgram data were processed using Scrubber and fit to a 1:1 interaction model (including a term kₘ for mass transport) using CLAMP.

[13] = target: T1, Recombinant Human Sonic Hedgehog C24II …; assay: as above
Description: as §4

[14] = target: T5, Recombinant Human Desert Hedgehog C23II, amino terminal peptide (R&D Systems cat#4777-HH) (human, UniProt O43323 23-198); assay: ELISA, immobilized human Dhh, antibody 30 µg/ml to 1 pg/ml
T5 construct: domain: amino terminal peptide; bought; also called Human Dhh
Description: The plates were washed four times with PBS-T. Titrations of purified antibody (half log serial dilutions over at least six logs with a starting concentration of 30 μg/mL) were made in 100 μl PBS-T and added into wells and incubated with shaking overnight at 4° C. Antibody controls included human IgG2 and IgG4 (Sigma-Aldrich, Cat, #I5404 and #I4639, respectively). […] Following washing with PBS-T, the chemiluminescent Peroxidase substrate (Sigma cat# CPS-2-60) was added at room temperature and incubated for ten minutes with the plate covered by foil. Each well was read for 100 msec in the Spectromax 5e to determine RLU.
After washing with PBS-T and blocking with 1% BSA, antibody titrations spanning concentrations of 30 μg/ml to 1 pg/ml prepared by half log serial dilution in PBS-T were added to wells and incubated with shaking overnight at 4° C.

[15] = target: T3, full length human Shh expressed on the …; assay: flow cytometry, hybridoma-derived hIgG4 on HEK 293 cells stably expressing full length Shh; 95% CI ±141 pM
Description: The binding affinity of the purified antibodies for full length Shh ectopically expressed on the surface of a pool of stable HEK 293 cells was determined using flow cytometry. […] Antibody was mixed with cells at approximately 74,000 cells/well in a final volume of 300 μl in a polypropylene microtiter plate. The plate was incubated with shaking for 5 hours at 4° C. […] The plates were shaken for 20 minutes at 4° C. The mean fluorescence of 10,000 events was recorded for each sample using FACS Canto II HTS flow cytometry instrumentation. A plot of the mean fluorescence as a function of antibody concentration was fit nonlinearly with Scientist 3.0 software to estimate KD.

[16] = target: T3, full length human Shh expressed on the …; assay: flow cytometry, recombinant hIgG2 on CAOV3 cells stably over-expressing full length Shh; 95% CI ±30.4 pM
[17] = target: T3, full length human Shh expressed on the …; assay: flow cytometry, transfected against parental 293T cells
Description: as §3

[18] = target: T3, full length human Shh expressed on the …; assay: flow cytometry, recombinant hIgG2 on CAOV3 cells stably over-expressing full length Shh; 95% CI ±460 pM
[19] = target: T2, Shh-N in conditioned medium; assay: SPR (Biacore T100), recombinant IgG2 mAb amine-coupled to CM5, Shh as analyte, 1:1 model; KD only an estimate
Description: as §4

[20] = target: T1, Recombinant Human Sonic Hedgehog C24II …; assay: as above
Description: as §4

[21] = target: T3, full length human Shh expressed on the …; assay: flow cytometry, recombinant hIgG2 on CAOV3 cells stably over-expressing full length Shh; 95% CI ±19.4 pM

Row | Binder | % Inhibition of Gli1 reporter, Conditioned Media N = 1, 20 µg/ml [2] [%] | % Inhibition of Gli1 reporter, Conditioned Media N = 2, 20 µg/ml [2] [%] | % Inhibition of Gli1 reporter, Co-Culture N = 1, 20 µg/ml [3] [%] | % Inhibition of Gli1 reporter, Co-Culture N = 2, 20 µg/ml [3] [%] | % Inh of Gli1 reporter, CM N = 1 [4] [%] | % Inh of Gli1 reporter, CM N = 3 [4] [%] | % Inh of Gli1 reporter, Co-Culture N = 1 [5] [%] | % Inh of Gli1 reporter, Co-Culture N = 2 [5] [%] | IC50, inhibition of osteoblast differentiation (alkaline phosphatase) of C3H10T1/2 cells [6] [nM] | OD450 (biotinylated human Shh) [OD450] | X Geo Mean (Transients) [9] | FL1 X COUNT [10] | Kd [12] [nM] | Kd [13] [nM] | also measured
1 | B1 | 50 | 61 | 44 | 55 | 33 | 47 | 42 | 39 | 5.7 | 4.3 | 188 | 585000 |  |  | Kd [1]: 0.061 nM; % Inhibition of Gli1 reporter, Co-Culture N = 3, 20 µg/ml [3]: 19%; Kd [7]: 0.03 nM; IC50, inhibition of endogenous mouse Gli1 mRNA (qRT-PCR) in C3H10T1/2 cells [8]: 7.7 nM; IC50, inhibition of endogenous mouse Ptc1 mRNA (qRT-PCR) in C3H10T1/2 cells [8]: 8.7 nM
2 | B2 |  |  |  |  |  |  |  |  |  |  |  |  | 0.317 | 0.377 | Kd [11]: 0.0465 nM
3 | B3 | 37 | 44 | 73 | 87 | 21 | -24 | 35 | 32 | 3.4 | 3.81 | 148 | 497000 |  |  | Kd [1]: 0.069 nM; binding result [14]: no binding; Kd [7]: 0.331 nM; Kd [15]: 0.25 nM
4 | B4 |  |  |  |  |  |  |  |  |  |  |  |  | 0.0056 | 0.0267 | Kd [16]: 0.0682 nM
5 | B5 | 73 | 43 | 44 | 76 | 46 | 22 | 31 | 34 | 3.3 | 5.14 | 196 | 625000 |  |  | % Inhibition of Gli1 reporter, Co-Culture N = 3, 20 µg/ml [3]: 22%; ratio [17]: 50.2
6 | B6 |  |  |  |  |  |  |  |  |  |  |  |  | 4.31 | 4.3 | Kd [18]: 1.52 nM; koff [12]: 0.00289 s⁻¹; kon [12]: 671000 M⁻¹ s⁻¹; koff [13]: 0.00209 s⁻¹; kon [13]: 486000 M⁻¹ s⁻¹
7 | B7 |  |  |  |  |  |  |  |  |  |  |  |  |  |  | Kd [19]: 0.0034 nM; Kd [20]: 0.0135 nM; Kd [21]: 0.0371 nM
